We go through six molecules from publication doi:10.1101/2022.05.31.494233 (bioRxiv, 2022).

Ends that are not written are not given here. * marks the point of attachment. Myristoyl = CCCCCCCCCCCCCC(=O)*

Common to all, as to test: SPR
Data set [1] has as its target myristoylated Src N-terminal Regulatory Element (SNRE) of c-Src, wild type.
Data set [2] deals with myrUSH3 K5A.
Data set [3] deals with myrUSH3 D10R.
Data set [4] has as its target myrUSH3 K7A.
Data set [5] deals with the molecule itself.

In turn, “myristoylated Src N-terminal Regulatory Element (SNRE) of c-Src, wild type (domain or fragment)” displayed a stoichiometry N in data set [1] of 2.

In data set [2], myrUSH3 K5A (domain or fragment) displayed a reduction of dimer formation relative to WT of 50% and a reduction of the dimer population relative to WT at the same protein density of 50%.

The molecule myrUSH3 D10R (domain or fragment) displayed a fold increase of dimerization relative to WT in data set [3] of 6 fold.

For myrUSH3 K7A (domain or fragment), in data set [4], the reduction of dimer formation relative to WT was found to be 50% and the reduction of the dimer population relative to WT at the same protein density was determined as 40%.

B1: myrSH4 R5R7R9 (triple arginine) (peptide, UniProt P12931 2-16, looked up)
peptide: Myristoyl-GSNRSRPRDASQRRR
As to B1, the binding result in data set [5] is “binds”.

B2: myristoylated synthetic peptide with residues 2-16 of c-Src (entire SH4 domain), wild type (peptide, UniProt P12931-1 2-16, looked up)
peptide: Myristoyl-GSNKSKPKDASQRRR
With B2, the binding result in data set [5] is “binds”.

Broadly, the stoichiometry N is the number of molecules, sites or subunits per partner or assembly.
